Source: PMC11279866, “Synthesis, Radiolabeling, and Biodistribution Study of a Novel DOTA-Peptide for Targeting Vascular Endothelial Growth Factor Receptors in the Molecular Imaging of Breast Cancer” (Pharmaceutics, 2024)
Where two headings read alike, the source gives them in different places. Where a SMILES comes first, the peptide text is derived from it. Bridges are numbered along the chain shown (N, C = ends). The star is where a group is joined. DOTA = O=C(O)CN1CCN(CC(=O)O)CCN(CC(=O)*)CCN(CC(=O)O)CC1; Ahx = NCCCCCC(=O)O

Experiments:
[1] = n-octanol/water partition coefficient (log p); format: physicochemical; conditions: shake-flask n-octanol/water; 100 μL radiopeptide in 0.99 mL water + 1 mL n-octanol; vortex 5 min, room temperature; centrifugation 10 min 5000 rpm; radioactivity read-out; mean ± SD (n = 3)
Procedure: A total of 100 μL of the radiolabeled peptide was aliquoted into vials containing 0.99 mL of water and 1 mL of n-octanol, which was then mixed by a vortex mixer (Mabnagene, Tehran, Iran) at room temperature for 5 min. Aqueous and organic layers were separated by centrifugation (10 min, 5000 rpm). Then, 500 μL aliquots of each layer were transferred to the new vials, and the radioactivity of both was measured in a dose calibrator (Capintec CRC®-25, Florham Park, NJ, USA).
The lipid–water partition coefficient for the [^68Ga]Ga-DOTA-Ahx-peptide was estimated in the n-octanol water system, using a […]. Approximately, the log p value was −2.17 ± 0.072, considering the below formula (Equation (2)). The result is reported as mean ± SD (n = 3). […] (2) […]

4T1 cells = format: binding, mouse BALB/c
Procedure: (§1) The 4T1 cell line was acquired from the Pasteur Institute of Iran (4T1 is a breast cancer cell line derived from the mammary gland tissue of a mouse BALB/c. (NCBICode: C604/the Pasteur Institute/Tehran/Iran). 4T1 cells are epithelial and can overexpress VEGFRs). The cells were cultured at 37 °C with 5% CO2 in Dulbecco’s modified Eagle’s medium (Gibco, Life Technologies, Carlsbad, CA, USA) supplemented with 10% fetal bovine serum (Gibco) and 1% antibiotics (penicillin and streptomycin). To develop tumor-bearing mice models, Balb/C mice (female, 6–8-week-old, 20–25 g) were purchased from the Institute of Biochemistry and Biophysics (IBB) (University of Tehran, Iran) and kept under the controlled conditions of temperature, humidity, and light/dark cycles with appropriate food and water (approved by the ethics committee of TUMS). Initially, the cells were harvested from the culture flask surface by 10 mM EDTA and centrifuged. After resuspending in serum-free culture medium, 1 × 10^6 cells/100 μL were injected subcutaneously into the right shoulder of mice. In the next 10 days, the tumor size was ready to use for imaging and biodistribution studies with a volume of […] [54].
A competitive binding assay was conducted to determine the value of 50% inhibitory concentration (IC50) for the [^68Ga]Ga-DOTA-Ahx-peptide, using the non-radiolabeled peptide as a competitor. […]

[2] = Ex vivo biodistribution in normal BALB/c mice; conditions: mouse, total radioactivity, mean ± SD (n = 3); for tissue uptake / tissue uptake at 0.5 h: iv, 840 kBq; for tissue uptake: healthy tissues, time point not stated; for tissue uptake at 0.5 h: normal mice
Procedure: (§2) The biodistribution of [^68Ga]Ga-DOTA-Ahx-peptide was evaluated in normal and tumor-bearing BALB/c mice. Therefore, 840 kBq in 100 μL saline was injected via the caudal vein of the mice. The animal was euthanized at different time points of 15, 30, 60, and 90 min post-injection using ketamine and xylazine in lethal doses. First, the blood sample was taken from the heart, and then organs (heart, kidney, liver, lungs, etc.) were removed. Tissues were rinsed and weighed, and the radioactivity of each organ was measured using a gamma counter. The organ uptake can be reported as the percentage of injected dose per gram of tissue (ID%/g). A 500-fold excess of DOTA-Ahx-ECRPPDDGLC was used 30 min before radiolabeled peptide injection for the blocking experiment.
Comparative biodistribution studies were conducted in healthy (Figure 7a) and subcutaneously (s.c) tumor-bearing mice (Figure 7b). […] Relatively high uptake was also observed in healthy tissues such as the spleen and intestine (3.7 ± 0.29%ID/g and 5.07 ± 0.21%ID/g, respectively). At 30 min, the highest accumulation of the radioactive compound was measured in the kidneys, which was 9.2 ± 0.53%ID/g and increased over time up to 90 min. Considering kidney uptake, this tracer is excreted mainly from this organ. The distribution profile of the [^68Ga]Ga-DOTA-Ahx-peptide in tumor-bearing mice had some similarity to the normal mice. Kidneys in tumor-bearing mice were also the critical organ with the highest radioactivity concentration at different time points (5.62 ± 0.31%ID/g at 30 min and 6.35 ± 0.54%ID/g at 90 min). This increasing profile has confirmed the quick washing-out of important organs such as the heart, lungs, liver, stomach, and intestine, which had relatively high radioactivity uptake. […] The maximum tumor uptake was 30 min after injection (1.51 ± 0.22%ID/g) and decreased by 90 min.
Figure 7 The biodistribution of the [^68Ga]Ga-DOTA-Ahx-peptide in (a) normal and (b) tumor-bearing BALB/c mice. The data are described as %ID/g, calculated at 30, 60, and 90 min after injection. The results are reported as mean ± SD (n = 3). (c) Tumor-to-organ ratio at 30, 60, and 90 min after IV injection. The uptake profile of (d) blood, (e) muscle, (f) liver, and (g) kidneys in comparison with the tumor from 15 to 90 min.

[3] = Ex vivo biodistribution in 4T1 tumor-bearing BALB/c mice, with blocking experiment; conditions: female, mouse, total radioactivity, mean ± SD (n = 3); for tissue uptake at 0.5 h: 30 min p.i.; for tissue uptake at 1.5 h: 90 min p.i.
Procedure: as §1, §2
Comparative biodistribution studies were conducted in healthy (Figure 7a) and subcutaneously (s.c) tumor-bearing mice (Figure 7b). […] At 30 min, the highest accumulation of the radioactive compound was measured in the kidneys, which was 9.2 ± 0.53%ID/g and increased over time up to 90 min. […] Kidneys in tumor-bearing mice were also the critical organ with the highest radioactivity concentration at different time points (5.62 ± 0.31%ID/g at 30 min and 6.35 ± 0.54%ID/g at 90 min). This increasing profile has confirmed the quick washing-out of important organs such as the heart, lungs, liver, stomach, and intestine, which had relatively high radioactivity uptake. […]
Figure 7 The biodistribution of the [^68Ga]Ga-DOTA-Ahx-peptide in (a) normal and (b) tumor-bearing BALB/c mice. The data are described as %ID/g, calculated at 30, 60, and 90 min after injection. […]

[4] = blood, IV 840 kBq, read-out: blood uptake
[5] = kidney, iv, 840 kBq, read-out: kidney uptake

Question: Which “log p (n-octanol/water partition coefficient)” value [1] does the source give for `CC(C)C[C@@H]1NC(=O)CNC(=O)[C@H](CC(=O)O)NC(=O)[C@H](CC(=O)O)NC(=O)[C@@H]2CCCN2C(=O)[C@@H]2CCCN2C(=O)[C@H](CCCNC(=N)N)NC(=O)[C@@H](NC(=O)[C@H](CCC(=O)O)NC(=O)CCCCCNC(=O)CN2CCN(CC(=O)O)CCN(CC(=O)O)CCN(CC(=O)O)CC2)CSSC[C@@H](C(=O)O)NC1=O` [[^68Ga]Ga-DOTA-Ahx-VGB3, metal not drawn] ({DOTA-Ahx}-ECRPPDDGLC-OH; disulfide 2-10) here?
Answer: ~−2.17 ± 0.072

Question: What about the IC50 (4T1 cells) of the same molecule?
Answer: ~867 nM

Question: What about the tissue uptake at 1.5 h ([2]; blood, healthy mice, 90 min p.i., IV 840 kBq) of the same molecule?
Answer: 0.32 ± 0.036 %ID/g

Question: What about the tissue uptake ([2]; intestine, read-out: intestine uptake) of the same molecule?
Answer: 5.07 ± 0.21 %ID/g

Question: And the tissue uptake at 0.5 h ([2]; kidney, 30 min p.i., read-out: kidney uptake)?
Answer: 9.2 ± 0.53 %ID/g

Question: And the tissue uptake at 0.5 h ([2]; liver, 30 p.i., read-out: liver uptake (maximum))?
Answer: 4.41 ± 0.56 %ID/g

Question: And the tissue uptake ([2]; spleen, read-out: spleen uptake)?
Answer: 3.7 ± 0.29 %ID/g

Question: And the tissue uptake at 0.5 h [3, 4]?
Answer: 1.4 ± 0.18 %ID/g

Question: What about the tissue uptake at 1.5 h [3, 4] of the same molecule?
Answer: 0.22 ± 0.06 %ID/g

Question: And the tissue uptake at 0.5 h [3, 5]?
Answer: 5.62 ± 0.31 %ID/g

Question: And the tissue uptake at 1.5 h [3, 5]?
Answer: 6.35 ± 0.54 %ID/g
